These results are taken from ChEMBL document CHEMBL4422612, “Small Molecule Inhibitor that Stabilizes the Autoinhibited Conformation of the Oncogenic Tyrosine Phosphatase SHP2” (J Med Chem, 2019).

Compound in data set [1]: CCOc1cc(O)c(C(=O)/C=C/c2ccc(Cl)cc2Cl)cc1CN1CCC=C(n2c(=O)[nH]c3ccccc32)C1
Briefly: Mixed type inhibition of human wild-type full length SHP2 assessed as substrate Vmax at 20 uM using H-Glu-Phe-pTyr-Ala-Glu-Val-Gly-Arg-Ser-Pro-Pro-Asp-Pro-Ala-Lys as substrate by Lineweaver-Burk plot analysis (reference value: 5.55 +/- 0.49 uM/min).

Compound in data set [2]: CCOc1cc(O)c(C(=O)/C=C/c2ccc(Cl)cc2Cl)cc1CN1CCC=C(n2c(=O)[nH]c3ccccc32)C1
Briefly: Mixed type inhibition of human wild-type full length SHP2 assessed as Kcat/Km ratio at 20 uM using H-Glu-Phe-pTyr-Ala-Glu-Val-Gly-Arg-Ser-ProPro-Asp-Pro-Ala-Lys as substrate by Lineweaver-Burk plot analysis (reference value: 100.3 +/- 25 /mM/sec).

Compound in data set [3]: CCOc1cc(O)c(C(=O)/C=C/c2ccc(Cl)cc2Cl)cc1CN1CCC=C(n2c(=O)[nH]c3ccccc32)C1
Nature of the data set: Mixed type inhibition of human wild-type full length SHP2 assessed as substrate Kcat at 10 uM using H-Glu-Phe-pTyr-Ala-Glu-Val-Gly-Arg-Ser-Pro-Pro-Asp-Pro-Ala-Lys as substrate by Lineweaver-Burk plot analysis (reference value: 3.19 +/- 0.28 Sec'-1).

Compound in data set [4]: CCOc1cc(O)c(C(=O)/C=C/c2ccc(Cl)cc2Cl)cc1CN1CCC=C(n2c(=O)[nH]c3ccccc32)C1
Briefly: Mixed type inhibition of human wild-type full length SHP2 assessed as substrate Km at 10 uM using H-Glu-Phe-pTyr-Ala-Glu-Val-Gly-Arg-Ser-Pro-Pro-Asp-Pro-Ala-Lys as substrate by Lineweaver-Burk plot analysis (reference value: 0.034 +/- 0.012 mM).

Compound in data set [5]: CCOc1cc(O)c(C(=O)/C=C/c2ccc(Cl)cc2Cl)cc1CN1CCC=C(n2c(=O)[nH]c3ccccc32)C1
Briefly: Mixed type inhibition of human wild-type full length SHP2 assessed as substrate Vmax at 10 uM using H-Glu-Phe-pTyr-Ala-Glu-Val-Gly-Arg-Ser-Pro-Pro-Asp-Pro-Ala-Lys as substrate by Lineweaver-Burk plot analysis (reference value: 5.55 +/- 0.49 uM/min).

Compound in data set [6]: CCOc1cc(O)c(C(=O)/C=C/c2ccc(Cl)cc2Cl)cc1CN1CCC=C(n2c(=O)[nH]c3ccccc32)C1
Nature of the data set: Mixed type inhibition of human wild-type full length SHP2 assessed as substrate Kcat at 20 uM using H-Glu-Phe-pTyr-Ala-Glu-Val-Gly-Arg-Ser-Pro-Pro-Asp-Pro-Ala-Lys as substrate by Lineweaver-Burk plot analysis (reference value: 3.19 +/- 0.28 Sec'-1).

Compound in data set [7]: CCOc1cc(O)c(C(=O)/C=C/c2ccc(Cl)cc2Cl)cc1CN1CCC=C(n2c(=O)[nH]c3ccccc32)C1
Briefly: Mixed type inhibition of human wild-type full length SHP2 assessed as substrate Km at 20 uM using H-Glu-Phe-pTyr-Ala-Glu-Val-Gly-Arg-Ser-Pro-Pro-Asp-Pro-Ala-Lys as substrate by Lineweaver-Burk plot analysis (reference value: 0.034 +/- 0.012 mM).

Compound in data set [8]: CCOc1cc(O)c(C(=O)/C=C/c2ccc(Cl)cc2Cl)cc1CN1CCC=C(n2c(=O)[nH]c3ccccc32)C1
Nature of the data set: Mixed type inhibition of human wild-type full length SHP2 assessed as Kcat/Km ratio at 10 uM using H-Glu-Phe-pTyr-Ala-Glu-Val-Gly-Arg-Ser-Pro-Pro-Asp-Pro-Ala-Lys as substrate by Lineweaver-Burk plot analysis (reference value: 100.3 +/- 25 /mM/sec).

B1: Tyrosine-protein phosphatase non-receptor type 11 (Homo sapiens), Q06124 (protein)
chain: MTSRRWFHPNITGVEAENLLLTRGVDGSFLARPSKSNPGDFTLSVRRNGAVTHIKIQNTGDYYDLYGGEKFATLAELVQYYMEHHGQLKEKNGDVIELKYPLNCADPTSERWFHGHLSGKEAEKLLTEKGKHGSFLVRESQSHPGDFVLSVRTGDDKGESNDGKSKVTHVMIRCQELKYDVGGGERFDSLTDLVEHYKKNPMVETLGTVLQLKQPLNTTRINAAEIESRVRELSKLAETTDKVKQGFWEEFETLQQQECKLLYSRKEGQRQENKNKNRYKNILPFDHTRVVLHDGDPNEPVSDYINANIIMPEFETKCNNSKPKKSYIATQGCLQNTVNDFWRMVFQENSRVIVMTTKEVERGKSKCVKYWPDEYALKEYGVMRVRNVKESAAHDYTLRELKLSKVGQGNTERTVWQYHFRTWPDHGVPSDPGGVLDFLEEVHHKQESIMDAGPVVVHCSAGIGRTGTFIVIDILIDIIREKGVDCDIDVPKTIQMVRSQRSGMVQTEAQYRFIYMAVQHYIETLQRRIEEEQKSKRKGHEYTNIKYSLADQTSGDQSPLPPCTPTPPCAEMREDSARVYENVGLMQQQKSFR
Take B1: the figures for the Vmax in data set [1] and in data set [5] were 1.5 µM/min and 2.6 µM/min, respectively. In addition, the kcat/Km came to 17200 M⁻¹ s⁻¹ in data set [2] and 33200 M⁻¹ s⁻¹ in data set [8]. In addition, the catalytic constant (kcat) in data set [3] turned out to be 1.5 s⁻¹; in data set [6] it was 0.86 s⁻¹. Also, the Km in data set [4] came out at 47 µM; in data set [7] it was 52 µM.
